Experimental data published in patent US20110053865A1 (Ablynx, published 2011).
Values joined by “and” are separate entries in the source; they are usually repeats but may differ in a detail not shown here. Identical values can stand only once.

T1: recombinant human IL-12 (human, UniProt P29459 23-219; P29460 23-328)
T1 sequence (looked up) 1: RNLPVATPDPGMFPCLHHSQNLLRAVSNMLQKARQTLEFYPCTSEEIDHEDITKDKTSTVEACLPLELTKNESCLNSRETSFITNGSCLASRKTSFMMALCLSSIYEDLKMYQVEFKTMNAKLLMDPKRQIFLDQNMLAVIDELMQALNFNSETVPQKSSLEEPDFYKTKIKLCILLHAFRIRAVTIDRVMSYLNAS
T1 sequence (looked up) 2: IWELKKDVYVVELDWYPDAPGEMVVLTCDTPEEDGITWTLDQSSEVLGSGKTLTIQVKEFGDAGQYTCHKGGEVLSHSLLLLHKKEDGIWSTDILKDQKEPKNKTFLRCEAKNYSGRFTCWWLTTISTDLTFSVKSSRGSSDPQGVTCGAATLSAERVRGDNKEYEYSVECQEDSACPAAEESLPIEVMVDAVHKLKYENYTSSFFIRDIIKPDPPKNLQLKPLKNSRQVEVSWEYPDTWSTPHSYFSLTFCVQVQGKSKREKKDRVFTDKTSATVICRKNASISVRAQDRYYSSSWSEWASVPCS

T2: recombinant human IL-23 (p19/p40) (human, UniProt Q9NPF7 20-189; P29460 23-328)
T2 construct: Bought heterodimer (R&D Systems or eBioscience); biotinylated in the alpha-screens; also called hIL-23
T2 sequence (looked up) 1: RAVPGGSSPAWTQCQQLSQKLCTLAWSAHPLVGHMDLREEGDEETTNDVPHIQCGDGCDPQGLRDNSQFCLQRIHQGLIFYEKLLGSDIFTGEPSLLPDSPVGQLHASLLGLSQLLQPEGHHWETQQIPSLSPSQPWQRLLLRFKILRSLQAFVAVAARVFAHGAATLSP
T2 sequence (looked up) 2: T1 sequence (looked up) 2

B1: P23IL-23H3 (VHH)
VHH: EVQLVESGGGLVQAGDSLRLSCAASGRSFSNDAMGWFRQAPGKERSFVAAINWSGELTGYAGSVKGRFTISRDGVENMVFLQMNSLVPEDTGVYYCAAVEGRDYYRGAQYYDYWGQGTQVTVSS
notes: p40+ Nanobody
B2: P23IL3G10 (VHH)
VHH: EVQLVESGGGVVQAGESLRLSCAASGYNVKDYEMGWFRQAPGMEREFAAAISWRGSSTYYADSVKGRFTISRDNAKNTVYLQMSSLKPEDTAVYYCAAGRLYPSSRSRDYDYWGQGTQVTVSS
notes: p40+ Nanobody; c-myc, His6-tagged
B3: P23IL3B8 (VHH)
VHH: EVQLVESGGGLVQPGGSLRLSCAASGFTFSSSVMFWLRQAPGKGLEWLSTIKPTGSTIYPGSGKGRFTISRDNAKNTLYLQINNLKPEDTALYYCARDIGGTVRGQGTQVTVSS
notes: as for B2
B4: P23IL-22D7 (VHH)
VHH: EVQLVESGGGLVQAGGSLRLSCASSGRTFSIYARGWFRQAPGKEREFVAAIRSGLTTYSDSVKGRFTISRDIAKNTVFLQMNSLKSEDTAVYYCAAAVNYFTDFTDYSKRDSYDYWGQGTQVTVSS
notes: p40+ Nanobody
B5: P23IL-22E11 (VHH)
VHH: EVQLVESGGGLVQAGGSLRLSCAASGRTFSWSAVGWFRQAPGKEREFVAAIRWSGGSPYYADSVKDRFTISRDNAKNTVYLQMNSLRPEDTAVYLCGETSLFPTSRGSHYDTWGQGTQVTVSS
B6: P23IL-23E3 (VHH)
VHH: EVQLVESGGELVQAGGSLRLSCAASGSIVSISAMAWYRQAPGKQRERVATITRGGTPDYADSAKDRFTISRDNAKNTVSLQMNNLKPEDTAVYYCKAALRTPTHDYNYYDYWGQGTQVTVSS
notes: p40+ Nanobody
B7: P23IL81A12v4 (VHH)
VHH: EVQLLESGGGLVQPGGSLRLSCAASGRTLSSYAMGWFRQAPGKGREFVSRISQGGTAIYYADSVKGRFTISRDNSKNTLYLQMNSLRPEDTAVYYCAKDPSPYYRGSAYLLSGSYDSWGQGTLVTVSS
notes: Final humanization variant of 81A12
B8: P23IL119A3-35GS-81A12 (bispecific antibody)
chain: EVQLVESGGGLVQAGGSLRLSCAASGRIFSLPASGNIFNLLTIAWHRQAPGMQRELVATINSGSRTNYADSVKGRFTISRDNAQKTVYLQMNNLKPEDTAVYYCQTSGSGSPNFWGQGTQVTVSSGGGGSGGGGSGGGGSGGGGSGGGGSGGGGSGGGGSEVQLVESGGGLVQAGGSLRLSCAASGRTLSSYAMGWFRQAPGKEREFVARISQGGTAIYYADSVKGRFTISRDNAKNTVYLQMNSLKPEDTAVYYCAKDPSPYYRGSAYLLSGSYDSWGQGTQVTVSS
B9: P23IL3C1 (VHH)
VHH: EVQLVESGGGSVQAGGSLRLSCKVSGIMFSDKGMGWFRQAPGKERETVAATNWSGGSTYYADSVKGRFTISRDNYKNTLHLQMASLKPEDTGIYYCAAAGDSWNSRRIEDYDYWGQGTPVTVSS
notes: p40+ Nanobody
B10: P23IL81E10 (VHH)
VHH: EVQLVESGGGLVQAGGSLRLSCVASGRTFNTYGMGWFRQAPGKEREFVAANNWSGGATSYADSVKGRFTISRDNAKNTVFLQMNTLKPEDTAVYYCAAADRGGGWLVVRENDYDYWGQGTQVTVSS
notes: p40+ Nanobody
B11: P23IL 84G12 (VHH)
VHH: EVQLVESGGRLVQAGGSLRLSCAASGRTFDSNPMGWFRQAPGKKREFVAIISGNGGITNYANSVKGRFTISRDNAKNTIYLQMNSLKPEDTAVYYCAASGLYGSGSVYDLMYDYWGQGTQVTVSS
notes: also called P23ILp40-PMP84G12
B12: P23IL-121A2-9GS-81G2 (bispecific antibody)
chain: EVQLVESGGGLVQAGGSLRLSCAASGSIFNFNYMGWFRQAPGKEREFVAAIRWSGSSTYYADSVKGRFTISRDDAKNTVALQMNSLKPEDTAIYYCALRKGIPYSTSDRVIKGVNDYDYWGQGTQVTVSSGGGGSGGGSEVQLVESGGGLVQPGGSLRLSCIASGLPFSTKSMGWFRQAPGKEREFVARISPGGTSRYYGDFVKGRFAISRDNAKNTTWLQMNSLKAEDTAVYYCASGERSTYIGSNYYRTNEYDYWGTGTQVTVSS
B13: P23IL119A3-9GS-81G2 (bispecific antibody)
chain: EVQLVESGGGLVQAGGSLRLSCAASGRIFSLPASGNIFNLLTIAWHRQAPGMQRELVATINSGSRTNYADSVKGRFTISRDNAQKTVYLQMNNLKPEDTAVYYCQTSGSGSPNFWGQGTQVTVSSGGGGSGGGSEVQLVESGGGLVQPGGSLRLSCIASGLPFSTKSMGWFRQAPGKEREFVARISPGGTSRYYGDFVKGRFAISRDNAKNTTWLQMNSLKAEDTAVYYCASGERSTYIGSNYYRTNEYDYWGTGTQVTVSS
B14: P23IL 21C4 (VHH)
VHH: EVQLVESGGGLVQAGGSLRLSCAASGRTFSGYDMGWFRQAPGKEREFVAQISRHNSNTYYADAVKGRFTISRDNAKNTVSLQMNSLKPEDTAVYYCAIGSLFPSSRERDYDYWGQGTQVTVSS
notes: as for B2
B15: P23IL 84A12 (VHH)
VHH: EVQLVESGGGVVQAGESLRLSCAASGRSFSDYEMGWFRQAPGTEREFVASINRRGSSTFYADSVKGRFTISRDNTKNTVYLQMSSLKPEDTAVYLCAAGWLFPSSRSRDYDYWGQGTQVTVSS
notes: as for B2
B16: P23IL 20F2 (VHH)
VHH: EVQLVESGGGLVQPGGSLRLSCAASGFSLDYTAIGWFRQAPGKEREVVSCFTSVPGSTYHADSVKGRFTIASDNAKNTVYLQMNDLKPEDTAVYYCATDAQTYYSGSYCGRTPQEYPYWGQGTQVTVSS
notes: p40- Nanobody
B17: P23IL 3F11 (VHH)
VHH: EVQLVESGGGLVQAGGSLRLSCAASGSIFSINAMGWFRQAPGKERQFVAAINWSTGSTYYSDSVKGRFTISRDNAKNTVYLQMNSLKPEDTAVYFCASGYLFPSSRGSQYDYWGQGTQVTVSS
notes: as for B2

biological target: T1, recombinant human IL-12; assay: cell-based or functional assay

IC50, PHA blast proliferation, 1 pM hIL-12	IC50, PHA blast proliferation, 1 pM hIL-12; nc = no complete blocking	Binder
174 pM	–	B1
194 pM	–	B2
–	1500 pM	B3
116 pM	–	B4
159 pM	–	B5
–	1730 pM	B6

biological target: T2, recombinant human IL-23 (p19/p40); assay: SPR Biacore, hIL-23

Kd	koff	kon	Binder
0.33 nM	0.0002 s⁻¹	600000 M⁻¹ s⁻¹	B7

biological target: T2, recombinant human IL-23 (p19/p40); assay: cell-based or functional assay

IC50, splenocyte assay, 19 pM hIL-23	Binder
7 pM	B8

biological target: cynomolgus IL-23 (cynomolgus); assay: cell-based or functional assay

IC50, splenocyte assay, 3.8 pM cIL-23	Binder
5 pM	B8

biological target: T2, recombinant human IL-23 (p19/p40); assay: cell-based or functional assay; remark: another data set of the same source

IC50, mouse splenocyte assay (mIL-22)	IC50, mouse splenocyte assay (mIL-22); nc = blocking not complete	Binder
0.79 nM	–	B1
2.33 nM	–	B2
0.408 nM	–	B3
0.116 nM	–	B4
0.186 nM	–	B5
0.935 nM	–	B6
–	0.51 nM	B9

biological target: cynomolgus IL-23 (cynomolgus); assay: cell-based or functional assay; remark: another data set of the same source

IC50, mouse splenocyte assay (mIL-22)	IC50, mouse splenocyte assay (mIL-22); nc = blocking not complete	Binder
32.5 nM	–	B1
9.45 nM	–	B2
1.79 nM	–	B3
0.705 nM	–	B4
1.27 nM	–	B5
5.46 nM	–	B6
–	0.517 nM	B9

biological target: T3, cynomolgus IL-23 (cynomolgus); assay: SPR Biacore, cyno IL-23 on chip
T3 construct: also called cyno IL-23; cIL-23

koff	Binder
0.00067 s⁻¹	B1
0.002 s⁻¹ and 0.004 s⁻¹	B2
0.00132 s⁻¹ and 0.0012 s⁻¹	B10
0.00023 s⁻¹	B4
0.00023 s⁻¹	B5
0.0012 s⁻¹ and 0.0025 s⁻¹	B6
7e-05 s⁻¹	B11
5.9e-05 s⁻¹	B9

biological target: T2, recombinant human IL-23 (p19/p40); assay: cell-based or functional assay; remark: another data set of the same source

IC50, splenocyte assay, 19 pM hIL-23	Binder
740 pM	B12
1990 pM	B13

biological target: T1, recombinant human IL-12; assay: alpha-screen, hIL-12/IL12Rbeta1-Fc
Description: Human IL-23R-Fc chimera and hIL12Rbeta1-Fc chimera (R&D Systems, Minneapolis, Minn., US) were coupled to acceptor beads according to manufacturer instructions (Perkin Elmer, Waltham, Mass., US).
To this mixture, the IL12Rbeta1 acceptor beads and the streptavidin donor beads were added and further incubated for 1 hour at RT.

IC50	Binder
1.2 nM	B1
0.9 nM	B2
0.35 nM	B3
23 nM	B10
1.9 nM	B4
1.3 nM	B5
1.2 nM	B6
1.63 nM	B14
0.96 nM	B15
1 nM	B9

biological target: T2, recombinant human IL-23 (p19/p40); assay: SPR Biacore, hIL-23 on chip
Description: (§1) Nanobody binding was assessed at one concentration (100 nM). Each Nanobody was injected for 4 minutes at a flow rate of 45 μl/min to allow binding to chip-bound antigen. Next, binding buffer without Nanobody was sent over the chip at the same flow rate to allow spontaneous dissociation of bound Nanobody.

koff	Binder
0.00054 s⁻¹	B16

biological target: T2, recombinant human IL-23 (p19/p40); assay: SPR Biacore, hIL-23 on chip; remark: another data set of the same source
Description: as §1

koff	Binder
0.0011 s⁻¹	B1
0.00197 s⁻¹	B2
0.0035 s⁻¹	B3
0.00263 s⁻¹	B10
0.00146 s⁻¹	B17
0.00017 s⁻¹	B4
0.00023 s⁻¹	B5
0.00018 s⁻¹	B6
0.00029 s⁻¹	B11
0.00051 s⁻¹	B14
0.0016 s⁻¹	B15
0.000294 s⁻¹	B9
